The text below walks through data of paper PMC2670943 (Journal of molecular biology, 2009).

Series [1] deals with the molecule itself. The experiment in a line: crystal structure.
Series [2] concerns the molecule itself. The experiment in a line: crystal structure. This is another data set of the same source.
Series [3] concerns the target T1, human GRASP55 full length (residues 1–452) (human, UniProt Q9H8Y8-1 1-452). In words: AUC.
For series [4], the target named is T2, human GRASP55 N-terminal domain (residues 1–263) (human, UniProt Q9H8Y8-1 1-263). The experiment in a line: AUC.
The target of series [5] is T1, human GRASP55 full length (residues …). The experiment in a line: SPR. Background: In SPR one partner is held on a chip, and binding of the other changes the refractive index at the surface.
Series [6] deals with T2, human GRASP55 N-terminal domain …. In words: SPR.
Series [7] concerns the molecule itself. In words: crystal structure. The source holds these as a separate data set.

Read-outs that look alike come from different tables or passages of the source.

B1: human KCTD5 residues 34–234, seleno-methionine labeled (domain or fragment, UniProt Q9NXV2 34-234, looked up)
chain: ALAQRPGSVSKWVRLNVGGTYFLTTRQTLCRDPKSFLYRLCQADPDLDSDKDETGAYLIDRDPTYFGPVLNYLRHGKLVINKDLAEEGVLEEAEFYNITSLIKLVKDKIRERDSKTSQVPVKHVYRVLQCQEEELTQMVSTMSDGWKFEQLVSIGSSYNYGNEDQAEFLCVVSKELHNTPYGTASEPSEKAKILQERGSRM
modifications: seleno-methionine labeled (two seleno-methionine residues, M171 and M175, in the C-terminal domain)
Take B1: the “stoichiometry N” value in the series “crystal structure [1]” stood at 5 subunits.

B2: human KCTD5 residues 34–234 ("full length" construct for structural and binding analysis), native (domain or fragment, UniProt Q9NXV2 34-234, looked up)
chain: ALAQRPGSVSKWVRLNVGGTYFLTTRQTLCRDPKSFLYRLCQADPDLDSDKDETGAYLIDRDPTYFGPVLNYLRHGKLVINKDLAEEGVLEEAEFYNITSLIKLVKDKIRERDSKTSQVPVKHVYRVLQCQEEELTQMVSTMSDGWKFEQLVSIGSSYNYGNEDQAEFLCVVSKELHNTPYGTASEPSEKAKILQERGSRM
For B2, the “stoichiometry N” value in “crystal structure [2]” is 5 subunits. Also, the Kd in series [3] was found to be 1.41 ± 0.26 µM; in series [4], 8.26 ± 1.6 µM. Besides, the koff in series [5] came out at 0.00103 s⁻¹; in series [6], 0.00223 s⁻¹. In addition, the on-rate constant (kon) in series [5] is 870 M⁻¹ s⁻¹; in series [6] it was 2590 M⁻¹ s⁻¹.

B3: human KCTD5 N-module (residues 40–145) (domain or fragment)
chain: not shown
On to B3, for which the “stoichiometry N” value in “crystal structure [7]” is 5 subunits.

By stoichiometry N is commonly meant a count of units in the complex or per binding partner. One may read the Kd as the free concentration of one partner at which half of the binding sites on the other are occupied at equilibrium, for simple one-to-one binding. A low value points to a tighter complex. What is called koff is the first-order rate constant of dissociation. What is called kon is a measure of how fast the partners come together.
